Assay results: patent US20180328929A1 (BIOMERIEUX, published 2018)
Residue numbers refer to the chain shown, from its start.

B1: ORF2-MUT (ORF2 amino acids 394-660 with cysteines 627, 630 and 638 changed to serine, N-terminal 8-his tag) (other)
chain: HHHHHHHHQLFYSRPVVSANGEPTVKLYTSVENAQQDKGIAIPHDIDLGESRVVIQDYDNQHEQDRPTPSPAPSRPFSVLRANDVLWLSLTAAEYDQSTYGSSTGPVYVSDSVTLVNVATGAQAVARSLDWTKVTLDGRPLSTTQQYSKTFFVLPLRGKLSFWEAGTTKAGYPYNYNTTASDQLLVENAAGHRVAISTYTTSLGAGPVSISAVAVLAPHSALALLEDTMDYPARAHTFDDFSPESRPLGLQGSAFQSTVAELQRLKMKVGKTREL
notes: Made in E. coli; also called p-ORF2-MUT; construction according to the invention
B2: ORF2-REF (ORF2 amino acids 394-660 of hepatitis E virus isolate Human/China/HeBei/1987, N-terminal 8-his tag) (other)
chain: B1 chain with S242C, S245C, S253C
notes: Made in E. coli, dissolved from inclusion bodies in urea, Ni-NTA purified, dialyzed; Heterogeneous: covalent dimers (major form), non-covalent dimers, high-molecular-weight forms and aggregates; also called p-ORF2.1 polypeptide

Experiments:
[1] = target: the molecule itself; experiment: SDS-PAGE, non-heated (self-association)
[2] = target: the molecule itself; experiment: SDS-PAGE (self-association)

Row | Protein | binding result [1] | binding result [2]
1 | B1 | binds | 
2 | B2 |  | binds
